The record followed here is the FLAb antibody collection (doi:10.7554/elife.23156).

To fix the notation:
B1: scFv; the commonest letter at each place (parent)
chain 1: EVKLDETGGGLVQPGRPMKLSCVASGFTFSDYWMNWVRQSPEKGLEWVAQIRNKPYNYETYYSDSVKGRFTISRDDSKSSVYLQMNNLRVEDMGIYYCTGSYYGMDYWGQGTSVTVS
chain 2: DVVMTQTPLSLPVSLGDQASISCRSSQSLVHSNGNTYLRWYLQKPGQSPKVLIYKVSNRFSGVPDRFSGSGSGTDFTLKISRVEAEDLGVYFCSQSTHVPWTFGGGTKLEIK

In series [1] the parent is B1. Kind of series: Kd (Tite-Seq). As to conditions: with fluorescein; format: scFv 4-4-20, heavy + light.
In series [2] the parent is B1. Kind of series: yeast surface expression (ratio to wild type); higher = more expressed. The note with it: format: scFv 4-4-20, heavy + light.

Consider chain 1 Y103I D106Q, for which the equilibrium dissociation constant (Kd) in series [1] is at least 10 µM. Besides, in series [2], the yeast surface expression worked out at 0.516. For chain 1 W33E V37C the same measures were at least 10 µM and 0.709. With chain 1 V37W, in series [1], the Kd is 9.02 µM. Besides, in series [2], the yeast surface expression turned out to be 0.746. In the case of chain 1 V37K, in series [1], the Kd is 3.55 µM. The yeast surface expression in series [2] was 0.351.

chain 1 N35E W36E: in series [1], the Kd was at least 10 µM. In addition, the yeast surface expression in series [2] is 1.23. As to chain 1 W33T M34S V37E, the Kd in series [1] is at least 10 µM. In addition, in series [2], the yeast surface expression turned out to be 0.787. In the case of chain 1 T28F N35C, the equilibrium dissociation constant (Kd) in series [1] was at least 10 µM. In addition, the yeast surface expression in series [2] was 0.644. On to chain 1 W33E N35K, for which the dissociation constant Kd in series [1] was at least 10 µM. In addition, in series [2], the yeast surface expression came to 0.455. chain 1 Y102C M105P: the equilibrium dissociation constant (Kd) in series [1] was at least 10 µM. Moreover, in series [2], the yeast surface expression worked out at 0.69. For chain 1 G100Q W108N the same measures were at least 10 µM and 0.289. As for chain 1 S30D D31G W33A, the Kd in series [1] was at least 10 µM. Besides, the yeast surface expression in series [2] came to 0.663. With chain 1 F29N W33P, the Kd in series [1] is at least 10 µM. Besides, the yeast surface expression in series [2] turned out to be 0.333.

On to chain 1 D106N Y107I G109S, for which the Kd in series [1] is 0.136 µM. In addition, the yeast surface expression in series [2] was determined as 0.679. As to chain 1 Y103V Y107V, the Kd in series [1] was at least 10 µM. Also, the yeast surface expression in series [2] was 0.603. With chain 1 S30T W33F, the Kd in series [1] is 0.0534 µM. Moreover, the yeast surface expression in series [2] was 0.909. With chain 1 S101W Y102Q W108A, the Kd in series [1] was at least 10 µM. Further, in series [2], the yeast surface expression was determined as 0.239. Regarding chain 1 F29V D31E, the Kd in series [1] was found to be 1.47 µM. Moreover, the yeast surface expression in series [2] came out at 0.753. For chain 1 S101H G109V the same measures were at least 10 µM and 0.231. Consider chain 1 Y103L G109I, for which the Kd in series [1] was at least 10 µM. Besides, the yeast surface expression in series [2] turned out to be 0.206.

For the variant chain 1 N35Q W36M, the equilibrium dissociation constant (Kd) in series [1] was at least 10 µM. In series [2], the yeast surface expression was found to be 0.504.

As to chain 1 G100C Y102A, the Kd in series [1] worked out at 0.00279 µM. The yeast surface expression in series [2] amounted to 1.47.

For the variant chain 1 N35C V37M, the Kd in series [1] is at least 10 µM. Besides, the yeast surface expression in series [2] is 0.689. As for chain 1 Y102G D106Y, the Kd in series [1] was at least 10 µM. In series [2], the yeast surface expression turned out to be 0.496.

For the variant chain 1 S101W Y107T, in series [1], the Kd was at least 10 µM. Moreover, in series [2], the yeast surface expression stood at 0.42. Turning to chain 1 T28V Y32R, the equilibrium dissociation constant (Kd) in series [1] turned out to be 0.0245 µM. In addition, in series [2], the yeast surface expression came to 0.717. Regarding chain 1 Y102M Y103A Y107L, the equilibrium dissociation constant (Kd) in series [1] was at least 10 µM. For the same variant, the yeast surface expression in series [2] was 0.84. For chain 1 S101F M105I the same measures were at least 10 µM and 0.522.

For chain 1 M105A W108L, in series [1], the equilibrium dissociation constant (Kd) turned out to be 0.00184 µM. In addition, the yeast surface expression in series [2] turned out to be 0.505. Take chain 1 F29Y V37P: the dissociation constant Kd in series [1] is 0.228 µM. For the same variant, the yeast surface expression in series [2] amounted to 2.26. Take chain 1 Y102W Y103W: the Kd in series [1] stood at 2.88 µM. For the same variant, in series [2], the yeast surface expression was determined as 0.645. With chain 1 W33G V37L, in series [1], the Kd is at least 10 µM. Further, the yeast surface expression in series [2] was found to be 0.49.

Turning to chain 1 W33S W36D, in series [1], the Kd was at least 10 µM. The yeast surface expression in series [2] was found to be 0.562.

As to chain 1 Y103M G104M M105L, the Kd in series [1] is at least 10 µM. For the same variant, the yeast surface expression in series [2] came to 0.562.

Turning to chain 1 F29H V37R, the Kd in series [1] stood at 0.00707 µM. With chain 1 Y103K, the Kd in series [1] was 0.00301 µM. The yeast surface expression in series [2] turned out to be 1.04.

On to chain 1 F29P M34C, for which the Kd in series [1] was at least 10 µM. Also, the yeast surface expression in series [2] turned out to be 0.755. Taken in the same sequence, the figures for chain 1 G100M S101I G104T were at least 10 µM and 0.359. For the variant chain 1 S30Y W36A, the dissociation constant (Kd) in series [1] was at least 10 µM. In addition, the yeast surface expression in series [2] was 0.404.

chain 1 T28G F29R Y32K: in series [1], the dissociation constant (Kd) was at least 10 µM. The yeast surface expression in series [2] was found to be 0.507.

As for chain 1 D106W G109A, in series [1], the Kd is at least 10 µM. Besides, the yeast surface expression in series [2] was 0.168. With chain 1 G104H Y107M, in series [1], the Kd was at least 10 µM. Moreover, in series [2], the yeast surface expression was found to be 0.478. Turning to chain 1 F29I W36L, in series [1], the dissociation constant (Kd) is at least 10 µM. Further, the yeast surface expression in series [2] was determined as 0.729. Regarding chain 1 G100V S101I, in series [1], the dissociation constant (Kd) is at least 10 µM. Also, in series [2], the yeast surface expression is 0.653. As to chain 1 T28L S30N, the dissociation constant Kd in series [1] is 0.00122 µM. Also, in series [2], the yeast surface expression amounted to 0.861. chain 1 Y102Q M105V: the Kd in series [1] is at least 10 µM. Besides, the yeast surface expression in series [2] turned out to be 1.05.

Consider chain 1 M34C W36L, for which the Kd in series [1] is at least 10 µM. The yeast surface expression in series [2] was 0.524.

On to chain 1 D31K W33I M34N, for which the dissociation constant Kd in series [1] is at least 10 µM. The yeast surface expression in series [2] was 0.395.

Take chain 1 G100Y G109W: the Kd in series [1] was at least 10 µM. Besides, the yeast surface expression in series [2] is 0.26. As for chain 1 N35R W36K, in series [1], the dissociation constant (Kd) was at least 10 µM. Besides, the yeast surface expression in series [2] turned out to be 2.76. In the case of chain 1 T28R Y32H, the Kd in series [1] stood at 0.0259 µM. Also, the yeast surface expression in series [2] was determined as 1. Consider chain 1 G104I, for which the dissociation constant (Kd) in series [1] is at least 10 µM. The yeast surface expression in series [2] came out at 0.325. For the variant chain 1 M105Q D106S, the Kd in series [1] came out at 0.0808 µM. The yeast surface expression in series [2] came out at 1.17.

For the variant chain 1 Y107I W108R, the Kd in series [1] was at least 10 µM. Besides, the yeast surface expression in series [2] is 0.466. As to chain 1 Y102K Y103A D106W, in series [1], the equilibrium dissociation constant (Kd) was at least 10 µM. For the same variant, the yeast surface expression in series [2] was determined as 0.439.

As for chain 1 N35Y, the equilibrium dissociation constant (Kd) in series [1] is at least 10 µM. Also, the yeast surface expression in series [2] was 0.697.

Consider chain 1 N35I, for which, in series [1], the Kd was at least 10 µM. Besides, in series [2], the yeast surface expression is 0.652.

In the case of chain 1 N35M, in series [1], the equilibrium dissociation constant (Kd) is at least 10 µM. Besides, the yeast surface expression in series [2] turned out to be 0.715. As to chain 1 N35R, the dissociation constant (Kd) in series [1] was at least 10 µM. For the same variant, the yeast surface expression in series [2] was found to be 0.534.
